Experiment [1] addresses VLA-3 (ITGA3/ITGB1) on the cell membrane. Description: cell-based or functional assay.
The target in experiment [2] is recombinant human VLA-3 protein (ITGA3/ITGB1 heterodimer) (human) (UniProt P05556). The experiment can be described thus: ELISA, coated VLA-3 (0.125-1.5 nM), antibody 1 µg/mL. (In general: ELISA stands for enzyme-linked immunosorbent assay.)
Experiment [3] shares this target. The experiment can be described thus: BLI (Octet Red), antibody on AHC sensor, 50 nM VLA-3 with 2 mM Ca2+.
For experiment [4] the target is unchanged. The experiment can be described thus: BLI (Octet Red), antibody on AHC sensor, 50 nM VLA-3 with 2 mM EDTA. A general note: BLI is a label-free optical method that tracks binding on a fibre tip over time.
Experiment [5] shares this target. Description: BLI (Octet Red), antibody on AHC sensor, 50 nM VLA-3 with 2 mM Mg2+.
Experiment [6] shares this target. Description: BLI (Octet Red), antibody on AHC sensor, 50 nM VLA-3 with 2 mM Mn2+.
For experiment [7] the target is unchanged. The experiment can be described thus: SPR (Biacore T200), PS4-002 immobilised on CM5, VLA-3 as analyte, HBS-EP running buffer with 3 mM EDTA. A general note: SPR reads the build-up and loss of mass on a sensor chip optically.
Experiment [8] shares this target. Description: BLI (Octet Red), antibody on AHC sensor, VLA-3 as analyte, no additive, 0 mM EDTA in the running buffer.
Experiment [9] has as its target recombinant human VLA-3 protein (ITGA3/ITGB1 heterodimer) (human, UniProt P05556 21-728). Description: ELISA, coated VLA-3 (0.125-1.5 nM), antibody 1 µg/mL.

By EC50 is commonly meant the midpoint of the concentration-response curve. For orientation: Kd means the equilibrium constant for the complex coming apart. As usually defined, the koff is the rate constant with which the complex falls apart. The kon is the rate constant with which the complex forms.

recombinant human VLA-3 protein (ITGA3/ITGB1 heterodimer) (human), sequence (P05556 21-728, one chain of several): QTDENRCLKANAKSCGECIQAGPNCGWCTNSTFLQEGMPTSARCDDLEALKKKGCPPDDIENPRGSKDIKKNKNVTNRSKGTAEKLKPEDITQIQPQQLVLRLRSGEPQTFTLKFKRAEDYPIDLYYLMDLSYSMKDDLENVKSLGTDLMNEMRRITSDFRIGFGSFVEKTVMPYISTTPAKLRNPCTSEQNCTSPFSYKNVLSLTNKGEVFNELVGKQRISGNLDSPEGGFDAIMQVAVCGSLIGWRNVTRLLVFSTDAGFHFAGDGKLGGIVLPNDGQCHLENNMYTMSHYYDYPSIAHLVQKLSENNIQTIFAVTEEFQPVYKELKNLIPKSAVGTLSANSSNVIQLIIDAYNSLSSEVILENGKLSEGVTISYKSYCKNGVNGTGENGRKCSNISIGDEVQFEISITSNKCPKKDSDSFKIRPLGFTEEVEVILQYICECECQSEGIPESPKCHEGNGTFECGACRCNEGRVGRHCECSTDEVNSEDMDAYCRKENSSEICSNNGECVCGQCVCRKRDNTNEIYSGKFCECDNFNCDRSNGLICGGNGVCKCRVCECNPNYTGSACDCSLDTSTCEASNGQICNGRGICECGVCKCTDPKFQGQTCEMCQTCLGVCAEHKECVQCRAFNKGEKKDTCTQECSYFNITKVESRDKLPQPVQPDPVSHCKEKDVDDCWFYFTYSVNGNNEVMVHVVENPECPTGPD
recombinant human VLA-3 protein (ITGA3/ITGB1 heterodimer), sequence (P05556 21-728, one chain of several): as above

B1: PS4-002-vcMMAE (PS4 maxibody-vcMMAE conjugate, WT) (Fc fusion, part only; not given: scFv linker, hinge-Fc and drug, not shown: another chain or arm of the molecule; a dimerising Fc or GST; small tags and cut ends)
VH: QVQLVQSGGGLVNPGGSLRLSCAASGFPFSDHYMSWIRQAPGKGLEWVSYISNRGYTIHYADFVKGRFTISRDNAENTLYLQMNSLRAEDTAVYYCARDRGTIDAFDLWGQGTMVTVSS
VL: QSALTQPASVSGSPGQSITIPCSGTSDDIGRYNYVSWYQQHPGKAPKLLIYDVTRRSSGVSSHFSGSKSGSTASLIISGLQADDEADYFCSSFTNNRTVVFGGGTKLTVL
modifications: vcMMAE conjugated to cysteines after partial reduction with TCEP; average DAR 4.09; sites not stated, presumabl [CUT]
In experiment [1], B1 showed an IC50 (nM), cell growth inhibition (AlamarBlue), A549 cells of 5.22 nM; an IC50 (nM), cell growth inhibition (AlamarBlue), BT20 cells of 134 nM; an IC50 (nM), cell growth inhibition (AlamarBlue), CoCaB1 cells of 2.21 nM; an IC50 (nM), cell growth inhibition (AlamarBlue), MDA-MB-231 cells of 0.77 nM. Further, in experiment [1], the IC50 (nM), cell growth inhibition (AlamarBlue), MDA-MB-453 cells (first row) was 9.79 nM; the IC50 (nM), cell growth inhibition (AlamarBlue), MDA-MB-453 cells (second row) was 18.8 nM; the IC50 (nM), cell growth inhibition (AlamarBlue), MKN45 cells is 14.1 nM; the IC50 (nM), cell growth inhibition (AlamarBlue), Panc-1 cells amounted to 2.7 nM. For the same molecule, in experiment [1], the IC50 (nM), cell growth inhibition (AlamarBlue), SCaBER cells stood at 1.88 nM; the IC50 (nM), cell growth inhibition (AlamarBlue), SW780 cells was found to be 1.78 nM; the IC50 (nM), cell growth inhibition (AlamarBlue), UMUC-3 cells was determined as 2.1 nM; the Maximum (% inhibition), cell growth inhibition (AlamarBlue), A549 cells was found to be 77.3%. Further, in experiment [1], the Maximum (% inhibition), cell growth inhibition (AlamarBlue), Aspc-1 cells turned out to be 51.8%; the Maximum (% inhibition), cell growth inhibition (AlamarBlue), BT20 cells was 79.6%; the Maximum (% inhibition), cell growth inhibition (AlamarBlue), CoCaB1 cells stood at 95.5%; the Maximum (% inhibition), cell growth inhibition (AlamarBlue), MDA-MB-231 cells was determined as 78%. In [1], this molecule had a Maximum (% inhibition), cell growth inhibition (AlamarBlue), MDA-MB-453 cells (first row) of 96.2%; a Maximum (% inhibition), cell growth inhibition (AlamarBlue), MDA-MB-453 cells (second row) of 87.9%; a Maximum (% inhibition), cell growth inhibition (AlamarBlue), MDA-MB-468 cells of 89.9%; a Maximum (% inhibition), cell growth inhibition (AlamarBlue), MKN45 cells of 55.6%. In experiment [1], the Maximum (% inhibition), cell growth inhibition (AlamarBlue), Panc-1 cells is 73.8%; the Maximum (% inhibition), cell growth inhibition (AlamarBlue), SCaBER cells was 89.7%; the Maximum (% inhibition), cell growth inhibition (AlamarBlue), SW780 cells was 90.4%; the Maximum (% inhibition), cell growth inhibition (AlamarBlue), UMUC-3 cells was found to be 90.8%.

B2: PS4-002 maxibody (scFv-human IgG1 Fc), wild type (Fc fusion, part only; not given: scFv linker and IgG1 hinge-Fc, not shown: another chain or arm of the molecule; a dimerising Fc or GST; small tags and cut ends)
VH: QVQLVQSGGGLVNPGGSLRLSCAASGFPFSDHYMSWIRQAPGKGLEWVSYISNRGYTIHYADFVKGRFTISRDNAENTLYLQMNSLRAEDTAVYYCARDRGTIDAFDLWGQGTMVTVSS
VL: QSALTQPASVSGSPGQSITIPCSGTSDDIGRYNYVSWYQQHPGKAPKLLIYDVTRRSSGVSSHFSGSKSGSTASLIISGLQADDEADYFCSSFTNNRTVVFGGGTKLTVL
With B2, the EC50 in experiment [2] came out at 1 nM. The Kd in [3] worked out at 6.46 nM; in experiment [4] it was 2170 nM; in experiment [5], 0.85 nM; in experiment [6], 0.23 nM; in [7], 216 nM; in experiment [8] it was 2.15 nM. Besides, the koff is 0.000209 s⁻¹ in experiment [3]; 0.00397 s⁻¹ in experiment [4]; 3.78e-05 s⁻¹ in [5]; 8.46e-06 s⁻¹ in experiment [6]; 0.0045 s⁻¹ in experiment [7]; 5.9e-05 s⁻¹ in [8]. For the same molecule, the kon is 32400 M⁻¹ s⁻¹ in experiment [3]; 1830 M⁻¹ s⁻¹ in experiment [4]; 44600 M⁻¹ s⁻¹ in [5]; 36500 M⁻¹ s⁻¹ in experiment [6]; 20900 M⁻¹ s⁻¹ in experiment [7]; 32500 M⁻¹ s⁻¹ in [8].

B3: PS4 maxibody variant 2 (Linker-C variant) (Fc fusion)
scFv: QVQLVQSGGGLVNPGGSLRLSCAASGFPFSDHYMSWIRQAPGKGLEWVSYISNRGYTIHYADFVKGRFTISRDNAENTLYLQMNSLRAEDTAVYYCARDRGTIDAFDLWGQGTMVTVSSGGGGGSGGGSCGGGGSQSALTQPASVSGSPGQSITIPCSGTSDDIGRYNYVSWYQQHPGKAPKLLIYDVTRRSSGVSSHFSGSKSGSTASLIISGLQADDEADYFCSSFTNNRTVVFGGGTKLTVLG
notes: also called Mutant 2; L-C; not shown: Fc domain of human IgG1
Consider B3, for which the 50% effective concentration (EC50) in experiment [9] is approximately 1 nM.

Source of the values: EP4703380A1, “INTEGRIN-TARGETING ANTIBODIES AND USE THEREOF” (NIO BIOPHARMACEUTICALS. INC., priority 2023, dated 2024).
